Laboratory results: article PMC7954794, “Protein context shapes the specificity of SH3 domain-mediated interactions in vivo” (Nature Communications, 2021)

Tests used:
Hua2 = assay: Low-throughput liquid DHFR-PCA of selected Abp1 SH3 mutants (Fig. S3F); type: cell-based, Saccharomyces cerevisiae; details: average
Procedure: Liquid DHFR-PCA low-throughput experiments were performed to validate the PPIs identified as affected by the SH3 domain deletions in the high-throughput solid DHFR-PCA screen (256 PPIs weaker or lost and 116 PPIs stronger or gained following domain deletions). Mating and the diploid selection were performed as described for the large-scale experiment, with the exception that the plates were in 384 formats. Following the second diploid selection, diploid cells were inoculated in a 96 v-shaped well plate using a robotically manipulated 96 pin tool in a synthetic complete medium with MSG at pH 6.0 with NAT and HPH. After 48 h of growth, optical density (OD) was read using a TECAN Infinite F200 Pro, and dilutions to 1 OD in sterile nanopure water were prepared. Cells were then diluted to 0.1 OD by combining 25 µl of cell suspension at OD = 1 and 225 µl of PCA selection media without agar in a 96-wells plate. Plates were incubated at 30 °C in a TECAN Infinite M Nano and OD was monitored each 15 min for 72 h. […]
Selected non-conserved positions (E6 , E13, N15 and N27) sensitivities to mutations for the Abp1-Hua2 PPI were tested in a low -throughput liquid DHFR -PCA assay. The growth of the mutants in the low -throughput experiment (average of four replicates of the total OD for each growth curve, y axis ) is compared to the mutants DMS score (x axis). […]

ABP1 = assay: DHFR-PCA on solid medium, bait ABP1 (Fig. 1B); type: cell-based, Saccharomyces cerevisiae; details: bait ABP1, label = prey; 2-4 replicates
Source text: Supplement 41467_2021_21873_MOESM8_ESM.xlsx, sheet "Fig1B" | column: medsize; medrep; Ratio; Score

| Molecule | ave_au (DMS validation) (Hua2) [au] | medrep (log2 median colony size normalized to plate background, PCA score) (ABP1) |
| --- | --- | --- |
| WT (protein, UniProt P15891 2-592, looked up) Actin-binding protein: ALEPIDYTTHSREIDAEYLKIVRGSDPDTTWLIISPNAKKEYEPESTGSSFHDFLQLFDETKVQYGLARVSPPGSDVEKIIIIGWCPDSAPLKTRASFAANFAAVANNLFKGYHVQVTARDEDDLDENELLMKISNAAGARYSIQTSSKQQGKASTPPVKKSFTPSKSPAPVSKKEPVKTPSPAPAAKISSRVNDNNDDDDWNEPELKERDFDQAPLKPNQSSYKPIGKIDLQKVIAEEKAKEDPRLVQKPTAAGSKIDPSSDIANLKNESKLKRDSEFNSFLGTTKPPSMTESSLKNDDDKVIKGFRNEKSPAQLWAERKAKQNSGNAETKAEAPKPEVPEDEPEGEPDVKDLKSKFEGLAASEKEEEEMENKFAPPPKKSEPTIISPKPFSKPQEPVKAEEAEQPKTDYKKIGNPLPGMHIEADNEEEPEENDDDWDDDEDEAAQPPLPSRNVASGAPVQKEEPEQEEIAPSLPSRNSIPAPKQEEAPEQAPEEEIEEEAEEAAPQLPSRSSAAPPPPPRRATPEKKPKENPWATAEYDYDAAEDNELTFVENDKIINIEFVDDDWWLGELEKDGSKGLFPSNYVSLGN | 93.0274 | – |
| YBL039C (protein, UniProt P28274 1-579, looked up) CTP synthase 1: MKYVVVSGGVISGIGKGVLASSTGMLMKTLGLKVTSIKIDPYMNIDAGTMSPLEHGECFVLDDGGETDLDLGNYERYLGVTLTKDHNITTGKIYSHVIAKERKGDYLGKTVQIVPHLTNAIQDWIERVAKIPVDDTGMEPDVCIIELGGTVGDIESAPFVEALRQFQFKVGKENFALIHVSLVPVIHGEQKTKPTQAAIKGLRSLGLVPDMIACRCSETLDKPTIDKIAMFCHVGPEQVVNVHDVNSTYHVPLLLLEQKMIDYLHARLKLDEISLTEEEKQRGLELLSKWKATTGNFDESMETVKIALVGKYTNLKDSYLSVIKALEHSSMKCRRKLDIKWVEATDLEPEAQESNKTKFHEAWNMVSTADGILIPGGFGVRGTEGMVLAARWARENHIPFLGVCLGLQIATIEFTRSVLGRKDSHSAEFYPDIDEKNHVVVFMPEIDKETMGGSMRLGLRPTFFQNETEWSQIKKLYGDVSEVHERHRHRYEINPKMVDELENNGLIFVGKDDTGKRCEILELKNHPYYIATQYHPEYTSKVLDPSKPFLGLVAASAGILQDVIEGKYDLEAGENKFNF | – | 3.877 |
